Results from publication PMC12088383.

Target: GST-OGG1F319A (Homo sapiens, UniProt O15527 1-345, F319A)
Assay: EMSA

GST-OGG1F319A, sequence (O15527 whole entry F319A): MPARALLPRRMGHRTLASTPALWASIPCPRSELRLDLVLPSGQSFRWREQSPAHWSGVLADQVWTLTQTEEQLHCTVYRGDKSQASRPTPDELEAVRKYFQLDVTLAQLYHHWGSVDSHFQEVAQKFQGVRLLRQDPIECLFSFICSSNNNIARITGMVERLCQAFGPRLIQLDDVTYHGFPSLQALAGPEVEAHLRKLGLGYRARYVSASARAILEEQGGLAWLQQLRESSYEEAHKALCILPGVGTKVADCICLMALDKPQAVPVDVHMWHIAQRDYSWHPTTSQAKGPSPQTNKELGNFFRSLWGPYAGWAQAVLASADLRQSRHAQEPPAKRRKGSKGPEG

B1: 8-oxoGua duplex probe (Table S1) (dsDNA)
DNA 1: AGAGAAGAAGAAGAAGAAGAGATGGGTTATTCGAACTAGC
DNA 2: GCTAGTTCGAATAACCCATCTCTTCTTCTTCTTCTTCTCT
modifications: 8-oxoguanine at position 19 of strand 1 (printed X, written as G)
  binding result: no binding
